Data: patent publication US20060093617A1
Where two headings read alike, the source gives them in different places.

Columns and labels:
HLA-A0101 (human) = test: competition with 125I-labelled probe peptide, purified HLA
HLA-A0301 (human) = test: competition vs 125I-labelled probe peptide, purified soluble HLA
HLA-B0702 (human) [1] = test: competition with 125I-labelled probe peptide on purified soluble HLA; conditions: remark: other sources report otherwise
HLA-B0702 (human) [2] = conditions: remark: other sources report otherwise
HLA-B0702 (human) [3] = test: competition vs 125I probe peptide, purified HLA; conditions: remark: other sources report otherwise
HLA-B0801 (human) [4] = test: competition with 125I-labelled probe peptide, purified HLA
HLA-DRB1*0101 (human) = test: competition with 125I-labelled probe peptide on purified HLA-DR; conditions: remark: other sources report otherwise
HLA-A*0101 (human) = test: competition with 125I-labelled probe peptide on purified HLA-A*0101
HLA-B0801 (human) [5] = test: competition vs 125I probe peptide, purified HLA; conditions: remark: other sources report otherwise
HLA-B*0702 (human) = test: competition with 125I-labeled probe peptide, purified HLA
HLA-B0702 (human) [6] = test: competition vs 125I-labelled probe peptide, purified soluble HLA

B1: … (peptide)
peptide: LHGPTPLLY
modifications: not checked
Ki (HLA-A0101 (human)): 20000 nM

B2: … (peptide)
peptide: YLFNWAVRTK
modifications: not checked
Ki (HLA-A0301 (human)): < 1000 nM

B3: … (peptide)
peptide: QPRGRRQPI
modifications: not checked
Ki (HLA-B0702 (human) [1]): 1 nM
Ki (HLA-B0702 (human) [2]): < 1000 nM
Ki (HLA-B0702 (human) [3]): 1 nM
Ki (HLA-B0801 (human) [4]; remark: other sources report otherwise): 3 nM

B4: … (peptide)
peptide: SYTWTGALITPCAAE
modifications: not checked
IC50 (HLA-DRB1*0101 (human)): 5.63 nM

B5: … (peptide)
peptide: YLKGSSGGPL
modifications: not checked
Ki (HLA-B0801 (human) [4]): 10 nM

B6: … (peptide)
peptide: FTDNSSPPA
modifications: not checked
IC50 (HLA-A*0101 (human)): 10 nM
Ki (HLA-A0101 (human)): 10 nM

B7: … (peptide)
peptide: EARQAIRSL
modifications: not checked
Ki (HLA-B0801 (human) [5]): 9 nM

B8: … (peptide)
peptide: ARALAHGVRV
modifications: not checked
Ki (HLA-Cw0602 (human)): 9880 nM

B9: … (peptide)
peptide: AAKLSALGL
modifications: not checked
IC50 (HLA-B*0702 (human)): 277 nM
Ki (HLA-B0702 (human) [6]): 277 nM
